Results published in patent publication US20090123474A1, “COMBINATION OF ANGIOPOIETIN-2 ANTAGONIST AND OF VEGF-A, KDR AND/OR FLTL ANTAGONIST FOR TREATING CANCER” (ASTRAZENECA AB, priority 2005, published 2009).

How the values were obtained:
[1] = test system: A431 human tumour xenografts; assay: A431 xenograft efficacy study (Study A); format: in vivo; conditions: 3.19.3 10 mg/kg 2×wk i.p., VTKI 3 mg/kg/day p.o.
Procedure: (§1) The anti-tumor activity of monoclonal antibody 3.19.3 in combination with the VTKI 4-(4-fluoro-2-methylindol-5-yloxy)-6-methoxy-7-(3-piperidinopropoxy)quinazoline was evaluated in a xenograft model of human skin epidermoid carcinoma (Study A) and in a model of colorectal cancer (Study B) by using the A431 and Colo205 cell lines respectively.
(§2) A431 and Colo205 cells were cultured in flasks as routine until the cells reached sub-confluence. Immunodeficient 6-8 week old female mice (Ncr/nu/nu) were used. The cells were harvested and suspended in Matrigel. A cell suspension containing 1 to 5×10^6 cells was injected subcutaneously into the flank of the mice. The mice were randomized into different groups, each containing 10-15 mice. When the tumour volume reached 200 mm^3, the mice were randomized in each groups and the treatments were initiated. mAb 3.19.3 10 mg/kg in saline was injected intraperitoneally, twice per week for 2 weeks. 4-(4-fluoro-2-methylindol-5-yloxy)-6-methoxy-7-(3-piperidinopropoxy)quinazoline was treated peroral daily at doses ranging from 1.5 to 6 mg/kg in water containing 1% Tween80. The dimensions of each tumor were measured twice per week. The volume of the tumor was calculated as: Volume=Length×(Width)^2×0.5 (cm^3).

[2] = target: T1, Angiopoietin-1 (Homo sapiens, UniProt Q15389); assay: Biacore (SPR) medium resolution screen of mAb binding to Angiopoietin-1
T1 construct: purchased R&D Systems 293-AN-025/CF
T1 sequence (Q15389 16-498): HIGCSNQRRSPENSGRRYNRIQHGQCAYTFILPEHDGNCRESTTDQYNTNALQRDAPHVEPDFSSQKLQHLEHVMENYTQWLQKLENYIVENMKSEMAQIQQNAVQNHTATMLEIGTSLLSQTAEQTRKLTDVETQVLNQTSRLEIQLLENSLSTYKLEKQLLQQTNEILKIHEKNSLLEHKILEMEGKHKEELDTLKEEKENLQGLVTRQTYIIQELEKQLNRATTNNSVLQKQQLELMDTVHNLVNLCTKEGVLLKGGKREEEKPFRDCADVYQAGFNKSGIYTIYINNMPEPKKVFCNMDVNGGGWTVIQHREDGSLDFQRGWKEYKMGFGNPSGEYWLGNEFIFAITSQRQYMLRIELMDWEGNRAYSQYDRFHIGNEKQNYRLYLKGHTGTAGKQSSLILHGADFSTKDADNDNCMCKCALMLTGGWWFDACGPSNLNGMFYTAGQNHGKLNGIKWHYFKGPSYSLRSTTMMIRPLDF
Procedure: The cross-reactivity of the antibody to Angiopoietin-1 was further investigated by measuring the affinity of the mAbs to Angiopoietin-1. Instead of immobilizing Angiopoietin-1, as described in ELISA-based counter-binding, the mAbs were immobilized to the CM5 Biacore chips, and Angiopoietin-1 in solution was injected for the determination of the on-rate and off-rate. Six mAbs; 3.3.2, 3.31.2, 5.16.3, 5.86.1, 5.88.3 and 3.19.3 were tested.
Label-free surface plasmon resonance (SPR), or Biacore 2000 instrumentation, was utilized to measure antibody affinity to Angiopoietin-1. For this purpose, a high-density goat α-human antibody surface over a CM5 Biacore chip was prepared using routine amine coupling. For developmental experiments, purified mAbs (clones 3.3.2, 3.31.2, 5.16.3, 5.86.1, 5.88.3 and 3.19.3) were diluted to approximately 2.5-3.5 μg/ml in HBS-P running buffer containing 100 μg/ml BSA. The capture level for each mAb was approximately 150 RU. A 5-minute wash followed each capture cycle to stabilize the mAb baseline. A single Angiopoietin-1 sample diluted to 87.4 nM in the running buffer was injected for one minute over all capture surfaces. […] This experiment was repeated by increasing the mAb capture levels to well over 500-600 RU and injecting 380 nM Angiopoietin-1 for one minute. Angiopoietin-1 was again found to bind mAb 3.19.3.

[3] = test system: human SW620 colon tumour xenografts; assay: SW620 xenograft efficacy study; format: in vivo; conditions: 3.19.3 10 mg/kg 2×wk i.p., DC101 15 mg/kg 2×wk i.p., 3 weeks
Procedure: The anti-tumor activity of mAb 3.19.3 was evaluated in combination with monoclonal antibody DC101 which is directed against VEGFR-2/KDR, in the SW620 colorectal cancer xenograft model. Briefly, SW620 cells were cultured under routine tissue culture conditions in flasks until the cells reached sub-confluence. Immunodeficient 8-10 week old NCr nude mice were used, and cell suspensions containing approximately 1×10^6 cells were injected subcutaneously into the right flank of the mice. After the tumour volumes reached 100 mm^3, the mice were randomized in groups and the treatments were initiated. The mAb 3.19.3 10 mg/kg in saline was injected intraperitoneally, twice per week for 3 weeks. The mAb DC101 15 mg/kg in saline was also injected intraperitoneally, following the same schedule of twice per week for 3 weeks. The dimensions of each tumor were measured twice per week. The volume of the tumor was calculated as: Volume=Length×(Width)^2×0.5 (cm^3).

[4] = test system: human Colo205 colon tumour xenografts; assay: Colo205 xenograft efficacy study (Study B); format: in vivo; conditions: 3.19.3 10 mg/kg 2×wk i.p., VTKI 6 mg/kg/day p.o.
Procedure: as §1, §2

B1: mAb 3.19.3: fully human anti-Angiopoietin-2 monoclonal antibody, variable regions SEQ ID NO: 5-8; also binds Angiopoietin-1 (antibody, V domains shown)
VH: QVQLVESGGGVVQPGRSLRLSCAASGFTFTNYGMHWGRQAPGKGLEWVAVISHDGNNKYYVDSVKGRFTISRDNSKNTLYLQMNSLRAEDTAVYYCAREGIDFWSGLNWFDPWGQGTLVTVSSA
VL: EIVLTQSPGTLSLSPGERATLSCRASQSITGSYLAWYQQKPGQAPRLLICGASSWATGIPDRFSGSGSGTDFTLTISRLEPEDFAVYYCQQYSSSPITFGQGTRLEIKR
In the case of B1, the “% tumor growth inhibition” value [1] is reported as 46%, the “binding of Angiopoietin-1 to captured mAb” value ([2]; 87.4 nM Angiopoietin-1, capture level approximately 150 RU) is reported as “found to bind” and the “binding of Angiopoietin-1 to captured mAb” value ([2]; 380 nM Angiopoietin-1, capture levels over 500-600 RU) is reported as “found to bind”. For the same molecule, the tumour inhibition [3] was 48% and the “% inhibition” value [4] was 35%.
